Measurements taken from publication PMC314469, “Protein Interaction Networks by Proteome Peptide Scanning” (PLoS Biology, 2004).

T1: amphyphisin SH3 (AMPH_HUMAN), P49418
T1 chain: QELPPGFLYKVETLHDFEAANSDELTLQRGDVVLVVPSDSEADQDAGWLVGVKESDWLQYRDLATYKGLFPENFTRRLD


Key:
[1] = biological target: T1, amphyphisin SH3 (AMPH_HUMAN), P49418; test: SPOT array
[2] = biological target: endophilin SH3 (SH3G2_HUMAN), Q99962; test: SPOT array

| Binder | normalised SPOT signal, Boehringer light units (BLU); mean over the file's lines of this peptide [1] | normalised SPOT signal, Boehringer light units (BLU); mean over the file's lines of this peptide [2] |
| --- | --- | --- |
| VFRVLRRPQEFVNR [Q9ULB8 127-140] | 72.4 | 281 |
| VFTPLRRPGMLVPK [Q9UIW6 20-33] | 98 | 187 |
| VGASLTRPSRKLRW [Q92502 483-496] | 7280 | 269 |
| VGASLTRPNRRLRW [Q9Y3M8 456-469] | 1960 | 177 |
| VGDVLRRPSKDEPL [Q14571 2500-2513] | 26 | 115 |
| VGIQLRRPLFQKVT [P21709 133-146] | 36.6 | 77.8 |
| SGVRFHRPYRLLMH [Q9NT61 332-345] | 1490 | 200 |
| VGKAFIRPFREHHI [Q9GZT0 109-122] | 11700 | 390 |
| VGTELLRPLRGLLS [Q9NX26 97-110] | 320 | 112 |
| VGTLPSKPPFRFGQ [O60318 21-35] | 169 | 498 |
| VHGDIFRPPRKGML [Q99805 351-364] | 4010 | 97.6 |
| VHLKLRRPVTVPAG [Q9BT99 240-253] | 28 | 64.9 |
| VKIPPKRPPRKHIV [Q8WVK0 107-121] | 17500 | 14900 |
| VKKIPKKPPAPDPF [Q9UQN5 1344-1358] | 56.8 | 2740 |
| VKLKIKRPYGRKSQ [O60281 820-833] | 30.3 | 32 |
| VKLLIRRPESFGPA [Q15413 2218-2231] | 40.2 | 144 |
| VKMQLRRPSDQEVS [Q04864 259-272] | 81.1 | 382 |
| SISKPERPMKFLRE [P31321 38-51] | 609 | 8910 |
| VKPGLRRPPASPAL [Q05215 182-195] | 32.8 | 34.9 |
| VKRRPGRPRKSPLQ [Q9NR48 1846-1859] | 167 | 107 |
| VLAEIPRPLKRRGS [Q9Y290 36-49] | 138 | 205 |

| Binder | normalised SPOT signal, Boehringer light units (BLU); mean over the file's lines of this peptide [1] | normalised SPOT signal, Boehringer light units (BLU); mean over the file's lines of this peptide [2] |
| --- | --- | --- |
| VLAELPRPRRPPLQ [Q9NSY0 101-114] | 596 | 244 |
| VLALPGKPPFLTQL [P05771 392-406] | 57.3 | 474 |
| VLDFPRRPPWSYEM [Q96CT5 125-139] | 53.9 | 397 |
| VLGVLRRPLEAPPE [Q03169 136-149] | 1.1 | 5.5 |
| VLLKLRRPVVGSSE [Q14596 255-268] | 32.8 | 233 |
| VLLPPPRPTRKRSL [Q9P2L7 767-780] | 8360 | 7360 |
| VLPKFPRPVRTQEQ [Q92543 889-902] | 475 | 303 |
| SKAYPKRPLLGLVL [Q9GZR7 380-393] | 12.5 | 385 |
| VLPPPPRPPQRRSR [BAC05199 62-76] | 23100 | 21900 |
| VLQHLRRPVALQLD [Q9HC29 785-798] | 43.5 | 58.9 |
| VLTALRRPARSSWH [Q8WW71 300-313] | 1860 | 395 |
| VMARLSRPERPDLV [Q9HCS7 3-16] | 1410 | 1160 |
| VMASLRRPKRIIIR [P78527 3728-3741] | 743 | 177 |
| VMQSLRRPSSSGSS [O60269 443-456] | 45.5 | 1190 |
| VNEGPPKPPTELEP [AAH32298 448-462] | 19.8 | 3.4 |
| VNIVPKKPPLLDRP [Q96NB9 30-44] | 34.8 | 114 |
| VNLKLRRPSFRDDI [O00467 301-314] | 60.6 | 60.4 |
| VNRGPKRPKVLQRG [Q9UDR8 470-483] | 9 | 142 |
| SKKGFRRPSEKNQH [P17010 781-794] | 33.1 | 32 |
| VNRPLVRPQKRLSS [Q9BWX5 222-235] | 253 | 6270 |
| VNVVFRRPLRPADP [Q96FY0 68-81] | 768 | 266 |
